We go through one substance from paper PMC12053792 (Journal of Peptide Science, 2025).

Entries after “also recorded” stand apart in the source; their conditions may differ.

The nature of data set [1]: SAXS and cryo‐TEM (fibril formation). The conditions noted are these: 1 wt% aqueous solution. It counts as physicochemical. The protocol: Interrogation of the structure of peptide‐adjuvant constructs 2 and 3 was performed using CD spectroscopy as well as modelling studies (PEP‐FOLD). […] Fibril formation by α‐helical peptides is typically observed due to lateral association of coiled‐coils. Here, this may play a role, although lateral interaction of the hydrophobic alkyl chains is likely to be the essential driver for the fibril formation. The fibril core radius 14.0–18.5 Å from SAXS (Table S1) is consistent with the length of an extended Pam lipid chain. […]
windows, with 0.01 mm path length. Spectra were measured using a 0.5 nm step, 1 nm bandwidth and 1 s collection time per step, and a range of 180 to 280 nm. […]
The residue of the calculation was chosen to oscillate around the average, to avoid artifacts in the smoothed curve. CD data, measured in mdeg, was normalized to molar ellipticity using the molar concentration of the sample and the cell path length.
Cryogenic-TEM (Cryo-TEM) Imaging was carried out using a field emission cryo-electron microscope (JEOL JEM-3200FSC), operating at 200 kV. […] The micrographs were recorded using a Gatan Ultrascan 4000 CCD camera. […] Vitrified specimens were prepared using an automated FEI Vitrobot device using Quantifoil 3.5/1 holey carbon copper 200 mesh grids with a hole size of 3.5 µm and […]. […]

Data set [2] in a line: Circular dichroism (secondary structure). The class given is physicochemical. The protocol: CysBAGE4‐MalLNP and 2‐LNP formulations were analysed using DLS, circular dichroism (CD), and TEM. DLS analysis: CysBAGE4‐MalLNP and 2‐LNP formulations were diluted with Milli‐Q water and transferred to disposable cuvettes before measurement at 25°C with a 173° light scattering angle, […]. CD analysis: CysBAGE4‐MalLNP and 2‐LNP formulations were diluted with Milli‐Q water and analysed using a quartz cell with a 0.01 mm path length. Spectra were measured using a 0.5 nm step, 1 nm bandwidth and 1 s collection time per step. […]
NMR samples were analysed on either a Bruker AVIII 400 NMR system (1H-NMR frequency 400 MHz; 13C-NMR frequency 101 MHz) or a Bruker 500 MHz system (1H-NMR frequency 500 MHz; 13C-NMR frequency 125 MHz). […]
High-resolution mass spectra were recorded on a Bruker MicroTOF Focus II MS (ESI) operating in positive or negative ionisation mode. […]
Peptides were analyzed using a Waters Sunfire 5 μm, 2.1 x 150 mm column (C-18) at a flow rate of 0.6 mL/min. […]
Dynamic Light Scattering (DLS) Spectra were recorded using a Zetasizer Nano ZS (Malvern Panalytical) to measure the particle size and charge. […]
Circular Dichroism (CD) Spectra were recorded using a Chirascan spectropolarimeter (Applied Photophysics, U.K.). […]
windows, with 0.01 mm path length. Spectra were measured using a 0.5 nm step, 1 nm […]

Regarding “3: vaccine‐adjuvant construct Pam2Cys‐SK4‐NY‐ESO‐1_157‐165 [compound 3]”, the Fibril formation entry in data set [1] was “also formed fibrils; also recorded: indicate the formation of fibrils”. The “α‐helical character (f α)” value in data set [2] (CD spectra, Figures S12 and S13) is on record as 0.41. The “Secondary structure (in words)” value in data set [2] (CD, 0.01 mm path length, 180–280 nm) is given as “form α‐helical structures; also recorded: significantly more α‐helical character”.
